Assay results published in the supplement of paper PMC9233669.
This sample holds only a part of the variants without activity.

Columns and labels:
biotinyl-Val-oxazolone = assay: self-aminoacylation, catalytic enhancement (BVO) (fold over background); higher = more active; k-Seq, kA / k0A0; sequences stand for … in GGGAAUGGAUCCACAUCUACGAAUUC…UUCACUGCAGACUUGACGAAGCUG
How it was run: (§1)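 Catalytic enhancement equals the median kA over the uncatalyzed rate, the latter read from the low-activity peak of a bimodal Gaussian fit. Values of kA came from fitting each sequence's fraction reacted to a pseudo-first-order model, with 1000 bootstraps. Reacted RNA was captured with streptavidin and quantified by triplicate qPCR and Illumina sequencing after 90 minutes at room temperature with 2–1250 μM biotinyl-aminoacyl-oxazolone and 0.43 μM mutagenized RNA pools bearing a 21-nt variable region.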

biotinyl-Ile-oxazolone = assay: self-aminoacylation, catalytic enhancement (BIO) (fold over background); higher = more active; k-Seq, kA / k0A0; sequences stand for … in GGGAAUGGAUCCACAUCUACGAAUUC…UUCACUGCAGACUUGACGAAGCUG
How it was run: as §1

biotinyl-Leu-oxazolone = assay: self-aminoacylation, catalytic enhancement (BLO) (fold over background); higher = more active; k-Seq, kA / k0A0; sequences stand for … in GGGAAUGGAUCCACAUCUACGAAUUC…UUCACUGCAGACUUGACGAAGCUG
How it was run: as §1

biotinyl-Trp-oxazolone = assay: self-aminoacylation, catalytic enhancement (BWO) (fold over background); higher = more active; k-Seq, kA / k0A0; sequences stand for … in GGGAAUGGAUCCACAUCUACGAAUUC…UUCACUGCAGACUUGACGAAGCUG
How it was run: as §1

biotinyl-Met-oxazolone = assay: self-aminoacylation, catalytic enhancement (BMO) (fold over background); higher = more active; k-Seq, kA / k0A0; sequences stand for … in GGGAAUGGAUCCACAUCUACGAAUUC…UUCACUGCAGACUUGACGAAGCUG
How it was run: as §1

biotinyl-Phe-oxazolone = assay: self-aminoacylation, catalytic enhancement (BFO) (fold over background); higher = more active; k-Seq, kA / k0A0; sequences stand for … in GGGAAUGGAUCCACAUCUACGAAUUC…UUCACUGCAGACUUGACGAAGCUG
How it was run: as §1

Sequence	self-aminoacylation (biotinyl-Val-oxazolone)	self-aminoacylation (biotinyl-Ile-oxazolone)	self-aminoacylation (biotinyl-Leu-oxazolone)	self-aminoacylation (biotinyl-Trp-oxazolone)	self-aminoacylation (biotinyl-Met-oxazolone)	self-aminoacylation (biotinyl-Phe-oxazolone)
AUUGGCCUAGGUCAUCGGGUG [Fam2.2 aminoacylation ribozyme variant]	14.9	18.3	48	27.4	36.9	277
AUUUACCUAAGUCAUCGGGUG [Fam2.2 aminoacylation ribozyme variant]	4.66	4.85	11.1	7.89	7.89	64.2
AUUUACCUAGAUCAUCGGGUG [Fam2.2 aminoacylation ribozyme variant]	1.88	2.17	3	3.38	2.35	12.3
AUUUACCUAGGGCAUCGGGUG [Fam2.2 aminoacylation ribozyme variant]	3.12	2.92	3.47	3.7	3.65	16.7
AUUUACCUAGGUAAUCGGGUG [Fam2.2 aminoacylation ribozyme variant]	1.78	1.85	3.42	2.92	2.75	17.3
AUUUACCUAGGUCACCGGGUG [Fam2.2 aminoacylation ribozyme variant]	3.08	3.61	6.09	3.83	4.23	26.5
AUUUACCUAGGUCAUCGGGUA [Fam2.2 aminoacylation ribozyme variant]	12.3	14.1	39.9	22.2	29.5	218
AUUUACCUAGGUGAUCGGGUG [Fam2.2 aminoacylation ribozyme variant]	2.45	2.46	3.24	2.89	2.64	15
AUUUCACUGGUCAUCGAGUGA [Fam2.1 aminoacylation ribozyme variant]	2.85	2.99	4.92	6.42	4.7	19.9
AUUUCCCCGGUCAUCGAGUGA [Fam2.1 aminoacylation ribozyme variant]	3.65	3.34	5.8	8.04	5.69	32.5
AUUUCCCUGGUCAACGAGUGA [Fam2.1 aminoacylation ribozyme variant]	3.91	3.9	6.99	8.23	6.93	42.4
AUUUCCCUGGUCAUAGAGUGA [Fam2.1 aminoacylation ribozyme variant]	4.88	4.67	9.78	12.2	9.7	61.5
AUUUCCCUGGUCAUCGAGUAA [Fam2.1 aminoacylation ribozyme variant]	1.83	1.56	2.52	2.37	2.39	3.9
AUUUCCCUGGUCAUCGAGUGA [Fam2.1 aminoacylation ribozyme variant]	8.47	7.41	14.3	16.5	14.3	27.4
AUUUCCCUGGUCAUUGAGUGA [Fam2.1 aminoacylation ribozyme variant]	4.4	4.47	8.38	10	8.36	63.1
AUUUCCCUGGUCGUCGAGUGA [Fam2.1 aminoacylation ribozyme variant]	1.08	1.06	1.21	1.55	1.12	4.18
AUUUCCCUGGUCUUCGAGUGA [Fam2.1 aminoacylation ribozyme variant]	4.6	4.33	7.28	9.21	6.94	47.9
AUUUCCCUUGUCAUCGAGUGA [Fam2.1 aminoacylation ribozyme variant]	4.17	3.62	7.73	8.99	7.14	46
AUUUCUCUGGUCAUCGAGUGA [Fam2.1 aminoacylation ribozyme variant]	3.2	3.1	5.82	7.1	5.74	20.5
AUUUUCCUAGGUCAUCGGGUG [Fam2.2 aminoacylation ribozyme variant]	4.16	4.64	9.58	6.89	6.79	30.9
CAACACUUCAAGCAAGCGGUC [Fam1B.1 aminoacylation ribozyme variant]	0.953	1.1	1.25	0.593	1.24	0.831

Sequence	self-aminoacylation (biotinyl-Val-oxazolone)	self-aminoacylation (biotinyl-Ile-oxazolone)	self-aminoacylation (biotinyl-Leu-oxazolone)	self-aminoacylation (biotinyl-Trp-oxazolone)	self-aminoacylation (biotinyl-Met-oxazolone)	self-aminoacylation (biotinyl-Phe-oxazolone)
CAACACUUCAAGCAAUCAGUC [Fam1B.1 aminoacylation ribozyme variant]	0.772	0.858	0.923	4.78	0.716	14.5
CAACACUUCAAGCAAUCGCUC [Fam1B.1 aminoacylation ribozyme variant]	1.57	1.85	2.04	1.54	1.19	0.965
CAACACUUCAAGCCAUCGGUC [Fam1B.1 aminoacylation ribozyme variant]	1.48	1.35	1.74	1.24	1.35	1.04
CAACACUUCAAGCGAUCGGUC [Fam1B.1 aminoacylation ribozyme variant]	1.25	1.27	1.55	1.81	1.29	1.94
CAACACUUGAAGCAAUCGGUC [Fam1B.1 aminoacylation ribozyme variant]	0.828	0.911	0.842	0.696	0.731	0.601
CAACACUUUAAGCAAUCGGUC [Fam1B.1 aminoacylation ribozyme variant]	0.846	0.96	0.854	0.886	0.762	1.03
CAACAGUUCAAGCAAUCGGUC [Fam1B.1 aminoacylation ribozyme variant]	1.15	1.22	1.38	3.42	1.28	4.54
CAACUUCAAAAAAUCGGUCUG [Fam1A.1 aminoacylation ribozyme variant]	1.31	1.7	1.46	11.9	1.15	14.8
CAACUUCAAACAACCGGUCUG [Fam1A.1 aminoacylation ribozyme variant]	1.32	1.24	1.14	1.75	1.11	3.54
CAACUUCAAACAAGCGGUCUG [Fam1A.1 aminoacylation ribozyme variant]	1	1.42	1.12	1.3	1.24	1.19
CAACUUCAAACAAUCGGUAUG [Fam1A.1 aminoacylation ribozyme variant]	1.04	1.21	1.61	21	1.31	33.3
CAACUUCAAACAAUCGGUCUU [Fam1A.1 aminoacylation ribozyme variant]	1.5	1.59	2.43	27.7	1.53	45.8
CAACUUCAAACAUUCGGUCUG [Fam1A.1 aminoacylation ribozyme variant]	1.57	1.53	1.5	1.74	1.34	11.5
CAACUUCAAAUAAUCGGUCUG [Fam1A.1 aminoacylation ribozyme variant]	1.11	1.27	1.39	12.2	1.05	15.6
CAACUUCAAGCAAUCGGUCUG [Fam1A.1 aminoacylation ribozyme variant]	1.39	1.54	2.26	20.5	1.59	27.2
CAGCUUGCUAAUAGUCGCAAG [Fam3.1 aminoacylation ribozyme variant]	1.86	1.82	1.89	1.72	1.72	2.54
CAGUUUGAUAAUAGUCGCAAG [Fam3.1 aminoacylation ribozyme variant]	1.54	1.4	1.34	1.26	1.32	1.89
CAGUUUGCCAAUAGUCGCAAG [Fam3.1 aminoacylation ribozyme variant]	1.82	2.08	1.91	1.34	1.83	6.08
CAGUUUGCUAAAAGUCGCAAG [Fam3.1 aminoacylation ribozyme variant]	1.4	1.46	1.5	1.3	1.64	1.86
CAGUUUGCUAAUAGUCGCCAG [Fam3.1 aminoacylation ribozyme variant]	2.17	1.86	2.43	2.45	1.91	10.1
CAGUUUGCUGAUAGUCGCAAG [Fam3.1 aminoacylation ribozyme variant]	1.27	1.34	1.17	1.99	1.11	1.88
